Laboratory results published in patent US7033773B1, “Screening assays for G protein coupled receptor agonists and antagonists” (The General Hospital Corporation, priority 1997, dated 2006).

How the values were obtained:
rat PTHR [1] = target: T1, rat PTHR (Rattus norvegicus, UniProt P25961); test: IP3 production (PLC activation) in LLC-PK1 cells expressing rat PTHR; format: cell-based
T1 construct: expressed in transfected cells; host or cells: LLC-PK1 porcine renal epithelial cells (EW5; also EW29, AR-C38, AR-B44)
T1 sequence (P25961 27-591): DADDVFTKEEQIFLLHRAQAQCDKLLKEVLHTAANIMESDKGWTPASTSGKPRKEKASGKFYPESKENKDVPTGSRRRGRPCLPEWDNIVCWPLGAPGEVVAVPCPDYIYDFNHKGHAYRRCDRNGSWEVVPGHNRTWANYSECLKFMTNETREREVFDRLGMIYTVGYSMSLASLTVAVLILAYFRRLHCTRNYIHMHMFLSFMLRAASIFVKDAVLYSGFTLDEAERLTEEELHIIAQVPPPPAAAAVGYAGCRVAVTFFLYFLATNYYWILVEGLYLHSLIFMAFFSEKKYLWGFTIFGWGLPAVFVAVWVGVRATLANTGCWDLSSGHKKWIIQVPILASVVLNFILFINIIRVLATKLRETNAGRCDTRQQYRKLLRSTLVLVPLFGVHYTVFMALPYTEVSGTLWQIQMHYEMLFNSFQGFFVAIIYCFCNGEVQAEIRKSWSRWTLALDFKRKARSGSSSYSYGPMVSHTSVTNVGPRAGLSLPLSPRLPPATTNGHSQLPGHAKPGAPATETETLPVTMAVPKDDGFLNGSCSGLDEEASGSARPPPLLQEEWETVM
Experimental: Cells were seeded into 24-well plates at a density of 2.5×10^5 cells/well and cultured for a further 2 days before study. The cells were labeled at 37° C. for 16 h before assay with 3 uCi/ml of [^3H]myo-inositol in assay medium (serum- and inositol-free DMEM (GIBCO-BRL, Grand Island, N.Y.) supplemented with 0.1% BSA). After washing the cells with prewarmed assay medium containing 30 mM LiCl, they were incubated with 0.25 ml of assay medium containing 30 mM LiCl and stimulators (or vehicle) at 37° C. for various intervals(1-30 min). IP3 formation was arrested by aspiration and immediate addition of 0.5 ml of ice-cold 5% TCA. The acid extracts then were extracted twice with two volumes of water-saturated ether and adjusted to pH 7.4 with concentrated NaOH and Tris base (final concentration=10 mM) prior to chromatography on AG 1×8 anion-exchange columns (Bio-Rad, Richmond, Calif.), as previously described (Guo, J., et al., Endocrinology 136:3884-3891 (1995)). After eluting other fractions (free [^3H]myo-inositol, glycerophosphate inositol, IP1, and IP2), IP3 fractions were collected and their content of radioactivity was determined by liquid scintillation spectrometry (Beckman, model LS 6000IC).
Responses to hPTH(1-34) or hPTH(1-31) (1000 nM) were measured in EW5 cells, which express 320,000 rat PTHRs per cell. Each value is the mean±SEM of a representative experiment performed in triplicate. Similar results were obtained in at least 3 individual experiments. The modest reduction in IP3 formation observed with hPTH(1-31) relative to hPTH(1-34) was confirmed in 3 other LLC-PK1 cell lines that expressed rat PTHRs (i.e. EW29, AR-C38 and AR-B44, which express 190,000, 630,000 and 800,000 PTHRs/cell, respectively), in which maximal IP3 formation after hPTH(1-31) (as % of hPTH(1-34) effect) was 75%, 77% and 64%, respectively.

rat PTHR [2] = target: T1, rat PTHR; test: Cellular cAMP accumulation in LLC-PK1 cells expressing rat PTHR; format: cell-based; conditions: EW5 cells
Experimental: FIG. 10. Stimulation of cyclic AMP accumulation by hPTH(1-31) and hPTH(1-34) in LLC-PK1 cells that express rat PTHRs. Cyclic AMP accumulation was measured in response to hPTH(1-34) (●) or hPTH(1-31) (Δ) in EW5 cells that expressed 320,000 rat PTHRs per cell. Results are expressed as fold basal.
Cells were seeded into 24-well plates at a density of 2.5×10^5 cells/well and cultured for a further 2 days before study. The cells were rinsed once with 0.5 ml of ice-cold Buffer B [10 mM HEPES (pH 7.4), 130 mM NaCl, 5 mM KCl, 1.2 mM CaCl2, 1 mM MgCl2, 1.2 mM Na2HPO^4 5 mM glucose, and 0.1% heat-inactivated BSA] supplemented with 1 mM isobtylmethylxanthine (IBMX), and placed on ice. Treatments were added to each well in 0.25 ml of IBMX-supplemented Buffer B, after which the plates were incubated at 37° C. for 15 min. The buffer then was rapidly aspirated, the plates were rapidly transferred onto liquid nitrogen, and the frozen monolayers were subsequently thawed directly into 0.5 ml of 50 mM HCl. The extracted cAMP then was measured using a commercial RIA kit (Dupont-New England Nuclear, Boston, Mass.). Results were expressed as fold-basal, where basal levels ranged between 38 and 128 pmol/mg protein/15 min. The basal level of cAMP accumulation in native LLC-PK1 cells was not consistently altered in subclones that expressed wild type PTH/PTHrp receptors.

hPTH(1-31)
maximal IP3 formation (as % of hPTH(1-34) effect) (rat PTHR [1]; AR-B44 cells, 800,000 rat PTHRs/cell): 64%
maximal IP3 formation (as % of hPTH(1-34) effect) (rat PTHR [1]; AR-C38 cells, 630,000 rat PTHRs/cell): 77%
maximal IP3 generation relative to that by hPTH(1-34) (rat PTHR [1]; EW5 cells (and 3 other rPTHR-expressing cell lines)): approximately 70%
IP3 Formation (rat PTHR [1]; EW5 cells, 320,000 rat PTHRs per cell, peptide 1000 nM, mean±SEM): 316 ± 35 % of basal
maximal IP3 formation (as % of hPTH(1-34) effect) (rat PTHR [1]; EW29 cells, 190,000 rat PTHRs/cell): 75%
maximal PLC activation as % of the maximal response to hPTH(1-34) (rat PTHR [1]; LLC-PK1 cells that expressed rat PTHRs): 60%
reduction of potency for PLC/PKC activation relative to hPTH(1-34) (rat PTHR [1]; via the rat PTHR): 40%
activation of AC (in words) (rat PTHR [2]): activated AC equivalently
